{"source": "patent US9040017B2", "about": "“Liver-receptor imaging injection, dispensing method and pharmaceutical composition thereof” (INSTITUTE OF NUCLEAR ENERGY RESEARCH ATOMIC ENERGY COUNCIL, …, priority 2010, dated 2015)", "assay": "Radiochemical purity before and after autoclave sterilization", "format": "physicochemical", "details": "DTPA-hexa-lactoside autoclaved in a lyophilized vial, then 111In radiolabel", "protocol": "To test whether ^111In radiolabel of DTPA-hexa-lactoside was affected by autoclave sterilization, DTPA-hexa-lactoside was put into a lyophilized vial to set in an autoclave for sterilizing. After that, ^111In radiolabel proceeded. […] The comparison of radiochemical purity between before and after autoclave sterilization was illustrated in FIG. 2. First, a developing solvent of radio-ITLC of 10 mM sodium citrate buffer (about pH 5) were prepared as follows: 0.13 g citric acid monohydrate and 0.11 g trisodium citrate dehydrate were weighed precisely to dissolve in 100 ml water for injection. Then 10 ml of the solution were added in the developing tank as a developing solvent. The position away from the bottom of a TLC-SG film about 2 cm was marked with a pencil as the origin while the position away from the bottom about 9 cm was marked as the end. A few samples were taken by a micropipette to drop at the origin. Then, the TLC-SG film was put in a developing tank containing a buffer (about pH 5) of 10 mM sodium citrate to develop. The film were taken out to dry in the fume cabinet while the liquid level reached the end. […] The calculating formula is as follows: Radiochemical purity (%)=A/B×100%, wherein A refers to a calculated area peak of ^111In-DTPA-hexa-lactoside (Rf=0.0-0.1), and B refers to calculated area of all peaks."}
{"substance": "DTPA derivatives of AHA-Asp[DCM-Lys(ah-Lac)3]2 [DTPA-hexa-lactoside]", "values": [{"measurement": "radiochemical purity of 111In after autoclave sterilization", "result": "< 90", "unit": "%"}]}
